For assay [1], the target named is T1, human IL-18BP (interleukin-18 binding protein, isoform A) (human, UniProt O95998 31-194).
T1 sequence: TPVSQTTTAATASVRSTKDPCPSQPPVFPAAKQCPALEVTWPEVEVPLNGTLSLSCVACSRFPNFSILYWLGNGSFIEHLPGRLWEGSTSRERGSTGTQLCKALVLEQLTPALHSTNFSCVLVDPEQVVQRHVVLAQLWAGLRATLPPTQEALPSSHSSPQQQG
The assay is described as follows: cell-based or functional assay.

For assay [2], the target named is T2, cynomolgus IL-18BP (cynomolgus monkey).
T2 construct: Generated in-house; also called cyIL-18BP; cyno IL-18BP
T2 chain: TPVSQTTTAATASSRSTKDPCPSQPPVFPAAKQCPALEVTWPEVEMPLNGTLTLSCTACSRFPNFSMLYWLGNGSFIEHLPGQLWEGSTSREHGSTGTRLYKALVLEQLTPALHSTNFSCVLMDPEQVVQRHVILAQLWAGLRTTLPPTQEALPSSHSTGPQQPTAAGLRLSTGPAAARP
Nature of the assay: BLI (Octet), mAb on AHC biosensor. (In BLI a coated tip is dipped into the sample, and binding shifts an interference pattern.)

Assay [3] has as its target T1, human IL-18BP (interleukin-18 binding …). Nature of the assay: BLI (Octet), mAb on AHC biosensor.
The target in assay [4] is T2, cynomolgus IL-18BP. The assay is described as follows: BLI (Octet), mAb on AHC biosensor.
Assay [5] has as its target T3, mouse IL-18BP (mouse, UniProt Q9Z0M9 29-193).
T3 construct: also called mIL-18BP
T3 sequence: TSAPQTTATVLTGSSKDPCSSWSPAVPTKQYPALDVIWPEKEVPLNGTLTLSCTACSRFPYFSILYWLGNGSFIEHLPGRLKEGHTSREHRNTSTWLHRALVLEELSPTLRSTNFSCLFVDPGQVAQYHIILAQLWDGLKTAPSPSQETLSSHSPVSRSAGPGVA
The assay is described as follows: BLI (Octet), mAb on AHC biosensor.

The target of assay [6] is T1, human IL-18BP (interleukin-18 binding …). Nature of the assay: BLI (Octet), mAb on AHC biosensor. The source holds these as a separate data set.
Assay [7] shares this target. Nature of the assay: cell-based or functional assay. This is another data set of the same source.
For assay [8], the target named is T2, cynomolgus IL-18BP. The assay is described as follows: BLI single-concentration screen, apparent KD.
Assay [9] deals with T1, human IL-18BP (interleukin-18 binding …). Nature of the assay: BLI single-concentration screen, apparent KD.
Assay [10] addresses T2, cynomolgus IL-18BP. The assay is described as follows: ratio of BLI KDs, cyno against human IL-18BP.
Assay [11] has as its target T2, cynomolgus IL-18BP. Nature of the assay: ratio of BLI KDs for cyno and human IL-18BP.
Assay [12] deals with T2, cynomolgus IL-18BP. Nature of the assay: BLI (Octet), mAb on AHC biosensor.
The target in assay [13] is T3, mouse IL-18BP. The assay is described as follows: BLI (Octet), mAb on AHC biosensor. The source holds these as a separate data set.
Assay [14] has as its target T1, human IL-18BP (interleukin-18 binding …). The assay is described as follows: BLI (Octet), mAb on AHC biosensor. This is another data set of the same source.
Assay [15] has as its target T2, cynomolgus IL-18BP. The assay is described as follows: BLI (Octet), mAb on AHC biosensor.
The target in assay [16] is T1, human IL-18BP (interleukin-18 binding …). The assay is described as follows: BLI (Octet), mAb on AHC biosensor. The source holds these as a separate data set.
In assay [17] the target is hypo-IL-18 (IL-18 tethered to IL-18BP by a flexible linker with TEV site, 6xHis) (human). The assay is described as follows: BLI.
hypo-IL-18 (IL-18 tethered to IL-18BP by a flexible linker with TEV site, 6xHis) (human), sequence (chain, as listed by the source limits assumed): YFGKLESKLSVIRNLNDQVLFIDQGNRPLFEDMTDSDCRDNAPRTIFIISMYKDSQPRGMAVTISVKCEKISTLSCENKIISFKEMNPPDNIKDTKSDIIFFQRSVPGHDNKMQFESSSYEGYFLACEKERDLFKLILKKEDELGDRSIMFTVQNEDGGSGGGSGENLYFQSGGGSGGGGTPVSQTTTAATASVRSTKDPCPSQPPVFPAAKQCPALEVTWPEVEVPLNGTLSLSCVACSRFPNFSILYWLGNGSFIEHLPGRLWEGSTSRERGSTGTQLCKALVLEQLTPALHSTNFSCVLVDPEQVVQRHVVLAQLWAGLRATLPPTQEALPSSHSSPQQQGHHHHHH
Assay [18] concerns the target T2, cynomolgus IL-18BP. The assay is described as follows: BLI (Octet), mAb on AHC biosensor.
Assay [19] has as its target T3, mouse IL-18BP. The assay is described as follows: BLI (Octet), mAb on AHC biosensor. This is another data set of the same source.
Assay [20] has as its target T1, human IL-18BP (interleukin-18 binding …). The assay is described as follows: BLI (Octet), mAb on AHC biosensor. This is another data set of the same source.
Assay [21] has as its target T3, mouse IL-18BP. The assay is described as follows: BLI (Octet), mAb on AHC biosensor. This is another data set of the same source.
Assay [22] concerns the target T1, human IL-18BP (interleukin-18 binding …). The assay is described as follows: cell-based or functional assay. This is another data set of the same source.

Values joined by “and” are separate entries in the source; they are usually repeats but may differ in a detail not shown here. Equal values may be shown once. Read-outs that look alike come from different tables or passages of the source.

We go through 5 molecules from patent US20250368745A1 (published 2025).

B1: SA301a (antibody, human IgG1, V domains shown)
VH: QVQLQESGPGLVKPSQTLSLTCTVSGYSITSDYNSHWIRQPPGKGLEWIGYIHYSGSTNYNPSLKSRVTISRDTSKNQFSLKLSSVTAADTAVYYCARNYGSIYVNYFDYWGQGTLVTVSS
VL: EIVLTQSPATLSLSPGERATLSCSASSSVSYMYWYQQKPGQAPRPLIYRTSNLASGIPARFSGSGSGTDFTLTISSLEPEDFAVYYCQQYHSYPTFGGGTKVEIK
notes: humanized; human IgG1 (suffix a), kappa; also called humanized SA44a
With B1, in assay [1], the “EC50 in PBMC Assay 1 (endogenous IL-18BP), IFNγ” value is 2 nM. In addition, the Kd is 0.102 nM with cynomolgus IL-18BP [2]; 0.217 nM in assay [3]; 0.078 nM with cynomolgus IL-18BP [4]; 0.162 nM in assay [6]; 0.1 nM and 0.2 nM in the assay with cynomolgus IL-18BP [8]; 0.2 nM and 0.3 nM in assay [9]. Also, the binding result in the assay with mouse IL-18BP [5] is reported as “no binding”. Besides, the “EC50 (nM), KG-1 Assay (IFNγ)” value in assay [7] stood at 1.3 nM. Also, the Cyno/human in the assay with cynomolgus IL-18BP [10] is 0.47 ratio.

B2: SA44a (antibody, human IgG1, V domains shown)
VH: DVQLQESGPDLVKPSQSLSLTCTVTGYSITSDYNCHWIRQFPGNKLEWMGYIHYSGSTNYNPSLKSRISITRDTSKNQFFLQLNSVTAEDTATYYCARNYGSIYVNYFDYWGQGTTLTVSS
VL: QIVLTQSPAIMSASPGEKVTISCSASSSVSYMYWYQQEPGSSPKPWIYRTSNLASGVPPRFSGSGSGTSYSLTISSMEAEDAATYFCQQYHSYPTFGGGTKLEIK
notes: murine variable regions on human IgG1 kappa constant regions
Take B2: the “Human/Cyno Fold Difference” value in the assay with cynomolgus IL-18BP [11] amounted to 1 fold. Also, the Kd with cynomolgus IL-18BP [2] worked out at 0.524 nM; in assay [3], 0.685 nM; in the assay with cynomolgus IL-18BP [4], 0.525 nM; in assay [6], 0.688 nM; with cynomolgus IL-18BP [12], 0.525 nM; in assay [14], 0.688 nM. Further, the Kd in the assay with cynomolgus IL-18BP [15] worked out at 0.67 nM; in assay [16], 0.51 nM. For the same molecule, the binding result (with mouse IL-18BP [13]; in [17]) was “no binding” each time. Besides, the Cyno/human with cynomolgus IL-18BP [10] was 0.76 ratio.

B3: SA50a (antibody, human IgG1, V domains shown)
VH: QVQLVQSGSELKKPGASVKVSCKASVYTFTEYPMHWLRQAPGQGFEWMGWIHTYSGEPTYADDFKGRFVFSLDTSVSTAYLQISSLKAEDTAVYFCARGRYYGALDYWGQGTALTVSS
VL: DIQMTQSPSSLSASVGDRVTITCRASQDISNYLNWYQQKPGKAVKLLIYYTSRLHSGVPSRFSGSGSGTDYTFTISSLQPEDIATYFCQHGNTLPRTFGGGTKLEIK
notes: humanized; human IgG1 (suffix a), kappa; also called humanized SA04a
For the molecule B3, the values for the Kd (with cynomolgus IL-18BP [18]; in assay [20]) were 4.27 nM and 0.41 nM, respectively. Further, in the assay with mouse IL-18BP [19], the binding result is “no binding”.

B4: SA07a (antibody, human IgG1, V domains shown)
VH: EVQLQQSGPELVKPGASVKISCKASGYTFTDYYMNWVKQSHGKSLEWIGDINPNNGGTSYNQKFKGKATLTVDKSSNTAYMELRSLTSEDSAVYYCAREGVYSNYGGYFDYWGQGTTLTVSS
VL: QIVLTQSPALMSASPGEKVTMTCSASSSVSYMYWYQQKPRSSPKPWIYLTSNLASGVPARFSGSGSGTSYSLTISSMEAEDAATYYCQQWSSNPPTFGSGTKLEIK
notes: as for B2
For the molecule B4, in the assay with mouse IL-18BP [21], the binding result is listed as “no binding”.

B5: SA04a (antibody, human IgG1, V domains shown)
VH: QIQFVQSGPEVKTPGETVKISCKASVYTFTEYPMHWLKQAPGEDFEWMGWIHTYSGEPTYADDFKGRFAFSLETSASTAYLQINNLKTEDTATYFCARGRYYGALDYWGQGTALT
VL: DIQMTQTPSSLSASLGDRVTISCRASQDISNYLNWYQQKPDGTVKLLIYYTSRLHSGVPSRFSGSGSGTDYSLTISNLEQEDVATYFCQHGNTLPRTFGGGTKLEIK
notes: as for B2
On to B5, for which the “Human/Cyno Fold Difference” value with cynomolgus IL-18BP [11] came out at 5.8 fold. The Kd with cynomolgus IL-18BP [12] stood at 1.5 nM; in [14], 0.26 nM; with cynomolgus IL-18BP [18], 1.5 nM; in assay [20] it was 0.26 nM; with cynomolgus IL-18BP [15] it was 0.67 nM; in [16], 0.25 nM. The “EC50 (nM), HEK293 IL-18 Reporter Assay (SEAP)” value in assay [22] amounted to 0.1 nM. In [7], the “EC50 (nM), KG-1 Assay (IFNγ)” value was 2.6 nM. Also, the binding result in assay [17] is on record as “no binding”.
